B1: Romaine, IgG1_D265A (antibody, V domains shown)
VH: EVQLVESGGGLVKPGGSLRLSCAASGFTFSIYAMSWVRQAPGKGLEWVGRIKSNADGGTTEYAAPVKGRFTISRDDSKNTLYLQMNSLKTEDTAVYYCARMRYYSDLYFDPWGQGTLVTVSS
VL: DIELTQPPSVSVSPGQTASITCSGDAIGSKYVHWYQQKPGQAPVLVISKDNKRPSGIPERFSGSNSGNTATLTISGTQAEDEADYYCQTATVSSYWWVFGGGTKLTVLGQ
B2: Servane, IgG1_D265A (antibody, V domains shown)
VH: B1 VH with I31T, M34I, R50F, N54K, A55H, D56N, G57S
VL: SYELTQPPSVSVSPGQTASITCSGDKLGQKYVSWYQQKPGQSPVLVISQDRKRPSGIPERFSGSNSGNTATLTISGTQAEDEADYYCQTWTHLQWVFGGGTKLTVLGQ
B3: Satine, IgG1_D265A (antibody, V domains shown)
VH: B1 VH
VL: B2 VL
B4: HeRX1-10G1, IgG1 (antibody, V domains shown)
VH: QVQLQESGPGLVKPSQTLSLTCTVSDYSITSDYAWNWIRQFPGKGLEWMGYISYSGSTSYNPSLKSRITISRDTSKNQFSLQLNSVTAADTAVYYCASFDYAHAMDYWGQGTTVTVSS
VL: DIVLTQSPAFLSVTPGEKVTFTCQASQSIGTSIHWYQQKTDQAPKLLIKYASESISGIPSRFSGSGSGTDFTLTISSVEAEDAADYYCQQINSWPTTFGGGTKLEIKRT
B5: HeRX1-10G1 (format not stated) (antibody, V domains shown)
VH: B4 VH
VL: B4 VL
B6: HeRX1-10G1, IgG1_D265A (antibody, V domains shown)
VH: B4 VH
VL: B4 VL
B7: Blanche, IgG1_D265A (antibody, V domains shown)
VH: QVQLQQSGPGLVKPSQTLSLTCAISGDSVSSNSAAWNWIRQSPSRGLEWLGRTYYRSKWKHEYAMSVKSRITINPDTSKNQFSLQLNSVTPEDTAVYYCARDRYYYSAFDYWGQGTLVTVSS
VL: DIALTQPASVSGSPGQSITISCTGTSSDVGGYNSVSWYQQHPGKAPKLMIYAVSNRPSGVSNRFSGSKSGNTASLTISGLQAEDEADYYCASYDERFTRVFGGGTKLTVLGQ
B8: Celine, IgG1_D265A (antibody, V domains shown)
VH: B7 VH with S31T, N32S, M65V
VL: B7 VL with D1Q, I2S, M49I
B9: Laurine, IgG1_D265A (antibody, V domains shown)
VH: B7 VH with H61K, M65Q
VL: B7 VL
B10: Camille, IgG1_D265A (antibody, V domains shown)
VH: B7 VH with D27E, S31T, N32S, M65V
VL: B7 VL with D1Q, I2S, M49L
B11: Camille (format not stated) (antibody, V domains shown)
VH: B7 VH with D27E, S31T, N32S, M65V
VL: B7 VL with D1Q, I2S, M49L
B12: Caline, IgG1_D265A (antibody, V domains shown)
VH: B7 VH
VL: B7 VL with D1Q, I2S
B13: Madeleine, IgG1_D265A (antibody, V domains shown)
VH: B7 VH with H61K, M65Q
VL: B7 VL with D1Q, I2S
B14: Meriem, IgG1_D265A (antibody, V domains shown)
VH: B7 VH with S31T, N32S, H61K, M65Q
VL: B7 VL with D1Q, I2S, M49I
B15: Maelle, IgG1_D265A (antibody, V domains shown)
VH: B7 VH with D27E, S31T, N32S, H61K, M65Q
VL: B7 VL with D1Q, I2S, M49I
B16: Satine, IgG1_D265A (antibody, V domains shown)
VH: B1 VH
VL: SYELTQPPSVSVSPGQTASITCSGDKLGQKYVSWYQQKPGQSPVLVISQDRKRPSGIPERFSGSNSGNTATLTISGTQAEDEADYYCQTWTHLQWVFGGGTKLTVLG
B17: Romaine, IgG1_D265A (antibody, V domains shown)
VH: B1 VH
VL: DIELTQPPSVSVSPGQTASITCSGDAIGSKYVHWYQQKPGQAPVLVISKDNKRPSGIPERFSGSNSGNTATLTISGTQAEDEADYYCQTATVSSYWWVFGGGTKLTVLG
B18: HeRX1-10G1, IgG1 (antibody, V domains shown)
VH: B4 VH
VL: DIVLTQSPAFLSVTPGEKVTFTCQASQSIGTSIHWYQQKTDQAPKLLIKYASESISGIPSRFSGSGSGTDFTLTISSVEAEDAADYYCQQINSWPTTFGGGTKLEIKR
B19: HeRX1-10G1, IgG1_D265A (antibody, V domains shown)
VH: B4 VH
VL: B18 VL
B20: Meriem, IgG1_D265A (antibody, V domains shown)
VH: B7 VH with S31T, N32S, H61K, M65Q
VL: QSALTQPASVSGSPGQSITISCTGTSSDVGGYNSVSWYQQHPGKAPKLIIYAVSNRPSGVSNRFSGSKSGNTASLTISGLQAEDEADYYCASYDERFTRVFGGGTKLTVLG
B21: Caline, IgG1_D265A (antibody, V domains shown)
VH: B7 VH
VL: B20 VL with I49M
B22: Celine, IgG1_D265A (antibody, V domains shown)
VH: B7 VH with S31T, N32S, M65V
VL: B20 VL
B23: Laurine, IgG1_D265A (antibody, V domains shown)
VH: B7 VH with H61K, M65Q
VL: B20 VL with Q1D, S2I, I49M
B24: Maelle, IgG1_D265A (antibody, V domains shown)
VH: B7 VH with D27E, S31T, N32S, H61K, M65Q
VL: B20 VL
B25: Blanche, IgG1_D265A (antibody, V domains shown)
VH: B7 VH
VL: B20 VL with Q1D, S2I, I49M
B26: Madeleine, IgG1_D265A (antibody, V domains shown)
VH: B7 VH with H61K, M65Q
VL: B20 VL with I49M

Numbering of substitutions follows the chain as printed.

Chain of native human M-CSF (in human serum or in MDA-MB-231 conditioned medium) (human), P09603 (P09603 33-255): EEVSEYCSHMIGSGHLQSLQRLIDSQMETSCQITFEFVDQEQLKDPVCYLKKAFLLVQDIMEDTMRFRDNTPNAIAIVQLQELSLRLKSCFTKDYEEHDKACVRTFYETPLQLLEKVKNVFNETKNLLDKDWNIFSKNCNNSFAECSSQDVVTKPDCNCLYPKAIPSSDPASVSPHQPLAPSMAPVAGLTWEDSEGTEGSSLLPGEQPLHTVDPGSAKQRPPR

One experiment addresses native human M-CSF (in human serum or in MDA-MB-231 conditioned medium) (human), P09603. Kind of experiment: cell-based or functional assay.
B1 yielded an IC50, inhibition of M-NFS-60 proliferation induced by MDA-MB-231 conditioned medium of 83.3 pM and an IC50, inhibition of M-NFS-60 proliferation induced by human serum (50%) of 25.2 pM.
The matching figures for B2: 107 pM and 93.2 pM.
In the same order, the values of B3 are 70.8 pM and 31.8 pM.
For B4, the IC50, inhibition of M-NFS-60 proliferation induced by MDA-MB-231 conditioned medium was determined as 90.3 pM and the IC50, inhibition of M-NFS-60 proliferation induced by human serum (50%) came to 15.4 pM.
In turn, B5 registered a Cell viability assay (IC50), Human serum M-CSF of 15 pM and a Cell viability assay (IC50), MDA-MB-231 of 90 pM.
B6: the IC50, inhibition of M-NFS-60 proliferation induced by MDA-MB-231 conditioned medium was 59.1 pM and the IC50, inhibition of M-NFS-60 proliferation induced by human serum (50%) was 12.4 pM.
In the same order, the values of B7 are 120 pM and 18.3 pM.
Molecule B8 yielded an IC50, inhibition of M-NFS-60 proliferation induced by MDA-MB-231 conditioned medium of 72.4 pM and an IC50, inhibition of M-NFS-60 proliferation induced by human serum (50%) of 23.8 pM.
In the same order, the values of B9 are 95 pM and 15.6 pM.
Take B10: the IC50, inhibition of M-NFS-60 proliferation induced by MDA-MB-231 conditioned medium amounted to 98.5 pM and the IC50, inhibition of M-NFS-60 proliferation induced by human serum (50%) amounted to 17.7 pM.
Turning to B11, the Cell viability assay (IC50), Human serum M-CSF amounted to 18 pM and the Cell viability assay (IC50), MDA-MB-231 amounted to 99 pM.
With B12, the IC50, inhibition of M-NFS-60 proliferation induced by MDA-MB-231 conditioned medium came to 107 pM and the IC50, inhibition of M-NFS-60 proliferation induced by human serum (50%) was 17.7 pM.
The matching figures for B13: 75.4 pM and 20 pM.
As for B14, the IC50, inhibition of M-NFS-60 proliferation induced by MDA-MB-231 conditioned medium turned out to be 76.9 pM and the IC50, inhibition of M-NFS-60 proliferation induced by human serum (50%) was 15.1 pM.
The matching figures for B15: 98.9 pM and 16 pM.

A further experiment concerns the target M-CSF endogenously expressed on MDA-MB-231 cells (human) (UniProt P09603). Kind of experiment: FACS, MDA-MB-231 cells endogenously expressing M-CSF (n = 2). In general terms: Flow cytometry measures light scatter and fluorescence of single cells or particles in a stream.
On to B16, for which the EC50 (commonly the concentration at which the effect is half-maximal) stood at 26000 pM.
The same measure, in the same setting: next, B17: 19000 pM.
On the same count and under the same terms, as for B18, the figure is 27000 pM.
On the same count and under the same terms, as for B19, the figure is 23000 pM; as for B20, 10000 pM.
B21 showed an EC50 of 14000 pM.
The same measure, in the same setting: next, B22: 13000 pM; B23: 9000 pM.
Consider B24, for which the EC50 was found to be 8000 pM. The EC50 values of the last two molecules are within 1.5-fold of each other.
Same read-out and setting: as for B25, the figure is 10000 pM; as for B26, 10000 pM.

The values above are taken from US20180057581A1.
